Common to all, as to format: cell-based, mice
The test system of assay [1] is Ly49H^+ splenic cNK cells. Nature of the assay: Splenic cNK cell co-culture with m157-MEF in the presence of ECM proteins (CD107a, IFNγ flow cytometry). To be noted: for Ly49H+ cNK cell degranulation (CD107a): 9 and 24 hours co-culture with m157-MEF, ECM coated 20 μg/cm2. The protocol: (§1) Single-cell suspensions from all samples were prepared by straining through a 70 μm filter. 2.4G2 supernatant treated cells were stained in 1×PBS/2% FCS/5 mM EDTA with the appropriate surface antibodies (Table 2) for 30 minutes at 4° C., washed and analyzed by flow cytometry. For intracellular staining, cells were fixed and permeabilized using True-Nuclear Transcription Buffer set (Biolegend, catalog no. 424401) according to the manufacturer's protocol then incubated with appropriate antibodies (Table 2) for 60 min at RT, washed and analyzed by flow cytometry. For in vitro signaling experiments, following the specified time points, cells were fixed with an equal volume of pre-warmed 1×aldehyde based fixation buffer (Biolegend, catalog no. 420801) for 20 min at RT. Fixed cells were permeabilized by drop-wise addition of chilled methanol-based solution True-Phos Perm Buffer (Biolegend, catalog no. 425401) while mixed on a vortex. Cells were stored in-20° C. and dark for 1-3 days before washing them two times with ˜3 mL of 1×PBS/2% FCS/5 mM EDTA. Cells were subsequently stained with appropriate antibodies against surface markers and specific phosphorylated signaling proteins (Table 2) for 60 min at RT, washed and analyzed by flow cytometry. Cells were assayed on a BD LSRFortessa X-20 flow cytometer (BD Bioscience, Billerica, MA, USA) and data were analyzed using FlowJo software Version 10 (Tree Star, Ashlad, OR, USA). NK cells in WT non-reporting mice were identified as CD3^− NK1.1^+NKp46^+.
(§2) For in vitro experiments in the presence of ECM components, Collagen I (Rat tail, Sigma, catalog no. 08-115), collagen III (Human placenta, Sigma, catalog no. C4407), collagen IV (Mouse, Sigma, catalog no. C0543), Elastin (Mouse lung, Sigma, catalog no. E6402), Laminin (Mouse, Thermo Fisher, catalog no. 23017015) and Fibronectin (Rat plasma, Sigma, catalog no. F0635) were diluted in 1×PBS and coated at 20 μ ENREF 45 g/cm^2 in a 24 well tissue culture plate for 30 minutes at RT with gentle shaking followed by overnight at 4° C. Spleens from Ncr1^iCre, ROSA^mT-mG, WT or Lair1^−/− mice were harvested as described above. Then, 5×10^6 splenocytes resuspended in RPMI 10% FBS/1% P/S/20 mM Glutamine were mixed with 20 μg of respective ECM protein per well and were incubated at RT for 10 minutes. Splenocytes and ECM mix were plated onto the ECM-coated well and were incubated at 37° C./5% CO2 for 2 hours (short ECM exposure) or 17 hours (long ECM exposure). At the end of the incubation, 1×10^5 MEF (WT or m157) cells were added to each well to obtain a 50:1 splenocyte:MEF ratio. For cell signaling experiments, hydrogen peroxide (H2O2) at a final concentration of 2.5 mM or 1×10^5 MEF-m157 cells were added to each well except in “0 min” wells which were unstimulated and fixed immediately. Splenocytes were stimulated with 2.5 mM H2O2 for 2 min and 5 min or were co-cultured with MEF-m157 for 30 min and 60 min (signaling) or 7 hours (CD107a and IFN[…]) at 37° C./5% CO2. Splenocytes and MEF in co-culture were supplemented with mIL-12 (10 ng/mL, Biolegend, catalog no. 577002), mIL-15 (1 ng/mL, Shenandoah Biotechnology, catalog no. 200-07) and hIL-2 (Biolegend, catalog no. 589104; only long ECM exposure) as well as for CD107a/IFN experiments. 1 μL of anti-CD107a-BV421 (1D4B, Biolegend, catalog no. 121618), 1×Brefeldin A (Biolegend, catalog no. 420601) and 1×Monensin (Biolegend, catalog no. 420701) were added. Following the co-culture, cells were washed with 1×PBS/2% FCS/5 mM EDTA and the pellet was resuspended in 2.4G2 blocking solution before flow cytometry staining.

Assay [2] has as its system splenic cNK cells. Briefly: Phospho-signaling in splenic cNK cells stimulated with H2O2 in the presence of ECM proteins. The settings on record: baseline and 2- and 5-minute exposure to H2O2. The protocol: as §1, §2
Assay [3] has as its system splenic cNK cells. Briefly: LEGENDplex chemokine release by splenic NK cells co-cultured with m157-MEF on ECM proteins. The settings on record: for CCL5 release by splenic cNK cells / CXCL10 release by splenic cNK cells: 12 hours. The protocol: NK cells purified from spleens under sterile conditions were used for LEGENDplex experiments. Spleens from 8-9-week-old C57BL/6 female WT mice were harvested and mashed through a 70 μm filter. Cells were resuspended in RBC lysis for two minutes and washed with 1×PBS/2% FCS/5 mM EDTA. NK cells were enriched by negative selection using an NK cell isolation kit (Milteny Biotec, catalog no. 130-115-818) and magnetic LS columns (Milteny Biotec, catalog no. 130-042-401) according to the manufacturer's instructions. Enrichment of isolated NK cells was confirmed by flow cytometry and was 88-90% CD3^−NK1.1^+NKp46^+ cells. Enriched NK cells were resuspended in RPMI 1640 media supplemented with 10% FBS and 1% P/S.
ECM protein coating on wells was performed as previously described. 1×10^5 enriched splenic NK cells was mixed with 20 μg of respective ECM protein per well in RPMI 1640/10% FBS/1% P/S/20 mM Glutamine and incubated at RT for 10 minutes. NK cells and ECM mix were plated onto the ECM-coated well and were incubated at 37° C./5% CO2 for 2 hours. At the end of the incubation, 1×10^5 MEF (WT or m157) cells were added to the respective wells to obtain a 1:1 NK:MEF ratio. NK cells and MEF were co-cultured at 37° C. 5% CO2 for 24 hours supplemented with mIL-12 (10 ng/mL, Biolegend, catalog no. 577002) and mIL-15 (1 ng/ml, Shenandoah Biotechnology, catalog no. 200-07-100 μg). The supernatant was collected at 12- and 24-hour intervals, centrifuged to remove cells/cell debris and subsequently frozen at −80° C. until further use. Quantification of murine cytokines and chemokines (CCL2, CCL5, CXCL9, CXCL10) in supernatants was performed with LEGENDplex kits (Biolegend, catalog nos. 740451, 740622) according to manufacturer's instructions. In brief, a mix of capture beads with distinct size and fluorescence was incubated with undiluted S/N or standard dilutions for 2 hours at RT with constant shaking. Beads were washed, a biotinylated detection antibody was added and the plate was incubated for 1 hour at RT with constant shaking. The streptavidin-PE conjugate was added and further incubated for 30 minutes at RT on a shaker. Beads were washed and subsequently acquired on a BD LSRFortessa X-20 flow cytometer. Analysis and quantification of the results were done using LEGENDplex data analysis software (BioLegend). Quantification was reported as pg/ml for CCL2, CCL5, CXCL10 and as MFI for CXCL9.

The test system of assay [4] is splenic cNK cells. Nature of the assay: Phospho-signaling in splenic cNK cells co-cultured with m157-MEF in the presence of ECM proteins. The protocol: as §1, with “Cells were stored in-20° C. and dark for 1-3 days before washing them two times with ˜3 mL of 1×PBS/2% FCS/5 mM EDTA.” left out, “NK cells in WT non-reporting mice were identified as CD3^− NK1.1^+NKp46^+.” left out

“collagen I: Collagen I (Rat tail, Sigma), dermal ECM protein”: in assay [1], the “Ly49H+ cNK cell degranulation (CD107a)” value is recorded as “potently blocked”. Further, the “IFNγ production by Ly49H+ cNK cells” value in assay [1] (exposed to m157-MEF, 9 and 24 hours) was “suppressed”. For the same molecule, in the assay with splenic cNK cells [2], the “pNFκB in NK cells” value is on record as “suppressive effect” and the “pSTAT3 in NK cells” value is “suppressive effect”. For the same molecule, in the assay with splenic cNK cells [3], the “CCL5 release by splenic cNK cells” value was “suppressed” and the “CXCL10 release by splenic cNK cells” value is “significantly induced”. The “CCL2 release by splenic cNK cells” value in the assay on splenic cNK cells [3] (24 hours) is on record as “significantly induced”.

B1: collagen III: collagen III (Human placenta, Sigma), dermal ECM protein (protein, UniProt P02461 154-1221, looked up)
Collagen alpha-1(III) chain: QYDSYDVKSGVAVGGLAGYPGPAGPPGPPGPPGTSGHPGSPGSPGYQGPPGEPGQAGPSGPPGPPGAIGPSGPAGKDGESGRPGRPGERGLPGPPGIKGPAGIPGFPGMKGHRGFDGRNGEKGETGAPGLKGENGLPGENGAPGPMGPRGAPGERGRPGLPGAAGARGNDGARGSDGQPGPPGPPGTAGFPGSPGAKGEVGPAGSPGSNGAPGQRGEPGPQGHAGAQGPPGPPGINGSPGGKGEMGPAGIPGAPGLMGARGPPGPAGANGAPGLRGGAGEPGKNGAKGEPGPRGERGEAGIPGVPGAKGEDGKDGSPGEPGANGLPGAAGERGAPGFRGPAGPNGIPGEKGPAGERGAPGPAGPRGAAGEPGRDGVPGGPGMRGMPGSPGGPGSDGKPGPPGSQGESGRPGPPGPSGPRGQPGVMGFPGPKGNDGAPGKNGERGGPGGPGPQGPPGKNGETGPQGPPGPTGPGGDKGDTGPPGPQGLQGLPGTGGPPGENGKPGEPGPKGDAGAPGAPGGKGDAGAPGERGPPGLAGAPGLRGGAGPPGPEGGKGAAGPPGPPGAAGTPGLQGMPGERGGLGSPGPKGDKGEPGGPGADGVPGKDGPRGPTGPIGPPGPAGQPGDKGEGGAPGLPGIAGPRGSPGERGETGPPGPAGFPGAPGQNGEPGGKGERGAPGEKGEGGPPGVAGPPGGSGPAGPPGPQGVKGERGSPGGPGAAGFPGARGLPGPPGSNGNPGPPGPSGSPGKDGPPGPAGNTGAPGSPGVSGPKGDAGQPGEKGSPGAQGPPGAPGPLGIAGITGARGLAGPPGMPGPRGSPGPQGVKGESGKPGANGLSGERGPPGPQGLPGLAGTAGEPGRDGNPGSDGLPGRDGSPGGKGDRGENGSPGAPGAPGHPGPPGPVGPAGKSGDRGESGPAGPAGAPGPAGSRGAPGPQGPRGDKGETGERGAAGIKGHRGFPGNPGAPGSPGPAGQQGAIGSPGPAGPRGPVGPSGPPGKDGTSGHPGPIGPPGPRGNRGERGSEGSPGHPGQPGPPGPPGAPGPCCGGVGAAAIAGIGGEKAGGFAPYYG
For B1, the “phospho-NFκB (p65) in splenic cNK cells” value in the assay with splenic cNK cells [4] (after 30- and 60-minutes exposure to m157-MEF) was “highly amplified”. Also, in the assay on splenic cNK cells [4] (at baseline), the “phospho-NFκB (p65) in splenic cNK cells” value was “significantly induced”. Besides, the “Ly49H+ cNK cell degranulation (CD107a)” value in assay [1] is on record as “potently blocked”. Further, the “pNFκB in NK cells” value with splenic cNK cells [2] is reported as “increased”. Also, in the assay on splenic cNK cells [3], the “CCL5 release by splenic cNK cells” value is reported as “suppressed” and the “CXCL10 release by splenic cNK cells” value is “significantly induced”. In addition, in the assay on splenic cNK cells [3] (24 hours), the “CCL2 release by splenic cNK cells” value was “significantly induced” and the “CXCL9 release by cNK cells” value is “induced”.
